In paper doi:10.1101/2022.11.15.516577:
Read-outs that look alike come from different tables or passages of the source.

Legend:
Assay in all cases: single-molecule TIRF colocalisation with deconvolution of colocalisation times
[1] = molecular target: N-terminally SNAP-tagged human β2AR carrying the vasopressin V2 receptor C-tail (SNAP-β2V2)
[2] = molecular target: N-terminally SNAP-tagged human β2AR carrying the vasopressin V2 receptor C-tail (SNAP-β2V2); remark: listed apart in the source
[3] = molecular target: N-terminally SNAP-tagged human β2AR carrying the vasopressin V2 receptor C-tail (SNAP-β2V2); remark: listed apart in the source

Measured: average interaction time

C-terminally Halo-tagged bovine β-arrestin 2 (βArr2-Halo) (from UniProt P32120-2 1-409) (natural protein)
1 s: all assays above
